We go through 5 molecules from patent US20250277023A1 (published 2025).

The target of test [1] is T1, PD-L1 (on CHO-PD-L1 cells) (UniProt Q9NZQ7 19-290). Nature of the test: FACS binding; Fig. 26.
Test [2] concerns the target T2, TIGIT (on CHO-TIGIT cells) (UniProt Q495A1 22-244).
T2 chain: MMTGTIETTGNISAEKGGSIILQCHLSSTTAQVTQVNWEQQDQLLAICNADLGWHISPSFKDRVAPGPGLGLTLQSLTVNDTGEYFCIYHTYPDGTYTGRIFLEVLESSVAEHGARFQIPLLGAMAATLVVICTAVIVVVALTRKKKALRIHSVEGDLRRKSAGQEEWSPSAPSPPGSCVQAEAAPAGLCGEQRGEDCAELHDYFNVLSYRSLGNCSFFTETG
Briefly: FACS binding; Fig. 20. Background: In flow cytometry, cells or beads pass a laser one at a time.

Test [3] concerns the target T2, TIGIT (on CHO-TIGIT cells). Briefly: FACS blocking of PVR binding to CHO-Tigit; Fig. 27.
Test [4] deals with T1, PD-L1 (on CHO-PD-L1 cells). Nature of the test: FACS binding; Fig. 22.
In test [5] the target is T1, PD-L1 (on CHO-PD-L1 cells). Nature of the test: FACS binding; Fig. 23.
For test [6], the target named is T1, PD-L1 (on CHO-PD-L1 cells). Nature of the test: FACS binding; Fig. 21.
The target of test [7] is IL15R. Briefly: FACS binding; Fig. 29.

Substitutions are numbered along the chain they refer to.

One may read the EC50 as the concentration that produces a half-maximal response. Low values mean an effect from little substance, high ones a need for much substance.

T1 sequence (Q9NZQ7 19-290): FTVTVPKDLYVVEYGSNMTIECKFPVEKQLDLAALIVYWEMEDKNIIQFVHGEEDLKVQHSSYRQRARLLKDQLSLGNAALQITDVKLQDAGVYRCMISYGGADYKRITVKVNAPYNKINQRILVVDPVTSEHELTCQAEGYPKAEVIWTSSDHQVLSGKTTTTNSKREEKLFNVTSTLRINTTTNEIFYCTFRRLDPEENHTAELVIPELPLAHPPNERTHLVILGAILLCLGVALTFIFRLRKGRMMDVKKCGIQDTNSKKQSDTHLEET

B1: R1262: TIGIT VH-IL2Rα mutant-Fc/TIGIT VL-IL2 mutant/PD-L1_VH-hIgG1/PD-L1 VL-κ-Ig LC (bispecific antibody)
chain 1: QVQLVQSGAEVKKPGSSVKVSCKASGYSFTSYWMNWVRQAPGQGLEWIGMIRPSDSETRLNQMFKDRVTITVDKSTSTAYMELSSLRSEDTAVYYCAGIHDYGHGAYWGQGTLVTVSSGGGGSGGGGSGGGGSGGGGCGELCDDDPPEIPHATFKAMAYKEGTMLNCECKRGFRRIKSGSLYMLCTGNSSHSSWDNQCQCTSSATRNTTKQVTPQPEEQKERKTTEMQSPMQPVDQASLPGHCREPPPWENEATERIYHFVVGQMVYYQCVQGYRALHRGPAESVCKMTHGKTRWTQPQLICTGEPKSSDKTHTCPPCPAPELLGGPSVFLFPPKPKDTLMISRTPEVTCVVVDVSHEDPEVKFNWYVDGVEVHNAKTKPREEQYNSTYRVVSVLTVLHQDWLNGKEYKCKVSNKALPAPIEKTISKAKGQPREPQVYTLPPSREEMTKNQVSLTCRVKGFYPSDIAVEWESNGQPENNYKTTPPVLKSDGSFFLASKLTVDKSRWQQGNVFSCSVMHEALHNHYTQKSLSLSPGK
chain 2: not shown
heavy: EVQLQESGPGLVKPSETLSLTCAVYGDSITSGYWNWIRKPPGKGLEYMGYISYTGSTYQNPSLKSRITFSRDTSKNQYYLKLSSVTAADTATYYCARSRAWIRTYFDYWGQGTLVTVSSASTKGPSVFPLAPSSKSTSGGTAALGCLVKDYFPEPVTVSWNSGALTSGVHTFPAVLQSSGLYSLSSVVTVPSSSLGTQTYICNVNHKPSNTKVDKRVEPKSCDKTHTCPPCPAPELLGGPSVFLFPPKPKDTLMISRTPEVTCVVVDVSHEDPEVKFNWYVDGVEVHNAKTKPREEQYNSTYRVVSVLTVLHQDWLNGKEYKCKVSNKALPAPIEKTISKAKGQPREPQVYTLPPSREEMTKNQVSLWCLVKGFYPSDIAVEWESNGQPENNYDTTPPVLDSDGSFFLYSDLTVDKSRWQQGNVFSCSVMHEALHNHYTQKSLSLSPGK
light: EIVLTQSPDFQSVTPKEKVTITCSVSSSISSSNLHWYQQKPDQSPKLLIYGTSNLASGVPSRFSGSGSGTDFTLTINSLEAEDAATYYCQQWSSYPLTFGQGTKLEIKRTVAAPSVFIFPPSDEQLKSGTASVVCLLNNFYPREAKVQWKVDNALQSGNSQESVTEQDSKDSTYSLSSTLTLSKADYEKHKVYACEVTHQGLSSPVTKSFNRGEC
In the case of B1, the values for the EC50 in test [1], in test [2] and in test [3] were 2.64 nM, 11.3 nM and 50.4 nM, respectively.

B2: R1115: TIGIT_VH_IL2RA/TIGIT_VL_IL2/PD-L1-Fab (bispecific antibody)
chain 1: B1 chain 1 with C138S
chain 2: not shown
heavy: B1 heavy
light: B1 light
With B2, the EC50 in test [1] stood at 3.11 nM; in test [4], 3.72 nM; in test [2], 15.7 nM; in test [3], 336 nM.

B3: R1042: PD-L1_VH_IL15RA/TIGIT_VL_IL15/TIGIT_VH/PD-L1-VL (bispecific antibody)
chain 1: EVQLLESGGGLVQPGGSLRLSCAASGFTFSSYIMMWVRQAPGKGLEWVSSIYPSGGITFYADTVKGRFTISRDNSKNTLYLQMNSLRAEDTAVYYCARIKLGTVTTVDYWGQGTLVTVSSGGGGSGGGGSGGGGSGGGGSGITCPPPMSVEHADIWVKSYSLYSRERYICNSGFKRKAGTSSLTECVLNKATNVAHWTTPSLKCIRDPALVHQRPAPPSTVTTAGVTPQPESLSPSGKEPAASSPSSNNTAATTAAIVPGSQLMPSKSPSTGTTEISSHESSHGTPSQTTAKNWELTASASHQPPGVYPQGHSDTTEPRGPTIKPCPPCKCPAPNLLGGPSVFIFPPKIKDVLMISLSPIVTCVVVDVSEDDPDVQISWFVNNVEVHTAQTQTHREDYNSTLRVVSALPIQHQDWMSGKEFKCKVNNKDLPAPIERTISKPKGSVRAPQVYVLPPPEEEMTKKQVTLWCMVTDFMPEDIYVEWTNNGKTELNYDNTEPVLDSDGSYFMYSDLRVEKKNWVERNSYSCSVVHEGLHNHHTTKSFSRTPGK
chain 2: not shown
heavy: QVQLESEGGLFKPTDTLTLTCTVSGSSLSSSYMSWVRQAPGKGLEWIGIIGSNGNTYYANWAKGRFTISKTSTTVELKITSPTTEDTATYFCARGGYRTSGMDPWGPGTLVTVSSAKTTAPSVYPLAPVCGDTTGSSVTLGCLVKGYFPEPVTLTWNSGSLSSGVHTFPAVLQSDLYTLSSSVTVTSSTWPSQSITCNVAHPASSTKVDKKIEPRGPTIKPCPPCKCPAPNLLGGPSVFIFPPKIKDVLMISLSPIVTCVVVDVSEDDPDVQISWFVNNVEVHTAQTQTHREDYNSTLRVVSALPIQHQDWMSGKEFKCKVNNKDLPAPIERTISKPKGSVRAPQVYVLPPPEEEMTKKQVTLTCRVTDFMPEDIYVEWTNNGKTELNYKNTEPVLKSDGSYFMASKLRVEKKNWVERNSYSCSVVHEGLHNHHTTKSFSRTPGK
light: QSALTQPASVSGSPGQSITISCTGTSSDVGGYNYVSWYQQHPGKAPKLMIYDVSNRPSGVSNRFSGSKSGNTASLTISGLQAEDEADYYCSSYTSSSTRVFGTGTKVTVLRTDAAPTVSIFPPSSEQLTSGGASVVCFLNNFYPKDINVKWKIDGSERQNGVLNSWTDQDSKDSTYSMSSTLTLTKDEYERHNSYTCEATHKTSTSPIVKSFNRNEC
In test [5], B3 gave an EC50 of 7.29 nM.

B4: R0950: PD-L1_VH_IL15RA/PD-L1_VL_IL15/TIGIT-Fab (bispecific antibody)
chain 1: B3 chain 1
chain 2: not shown
heavy: B3 heavy
light: DIVMTQTPASVEVAVGGTVTIKCQASQSISSYLNWYQQKPGQPPKLLIYDALKLASGVPSRFSGSGSGTEYTLTISGVESADAATYYCQQEHSVGNVDNVFGGGTEVVVKRTDAAPTVSIFPPSSEQLTSGGASVVCFLNNFYPKDINVKWKIDGSERQNGVLNSWTDQDSKDSTYSMSSTLTLTKDEYERHNSYTCEATHKTSTSPIVKSFNRNEC
As to B4, the EC50 turned out to be 0.903 nM in test [5] and 0.571 nM in test [6].

B5: R1042 (bispecific antibody)
chain 1: B3 chain 1
chain 2: not shown
heavy: B3 heavy
light: B3 light
On to B5, for which the concentration giving a half-maximal response (EC50) in test [7] was found to be 0.862 nM.
